Data as given in article PMC4140777, “Recognition of Bungarus multicinctus Venom by a DNA Aptamer against β-Bungarotoxin”.

Biological target: α-bungarotoxin (α-BuTx) (Bungarus multicinctus, UniProt P60615 22-95)
Assay: 20 mM HEPES pH 7.4, 150 mM NaCl, 5 mM KCl, 2 mM MgCl2, 2 mM CaCl2, room temperature
Details: protein: commercial; label: 5'-FAM (FA, filter, EMSA); biotin (ELAA); stem-loop (predicted)

Chain of α-bungarotoxin (α-BuTx) (P60615 22-95): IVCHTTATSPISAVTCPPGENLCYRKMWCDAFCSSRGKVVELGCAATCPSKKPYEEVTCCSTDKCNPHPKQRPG

B1: βB-1 (ssDNA)
DNA: AGCAGCACAGAGGTCAGATGGTTTTCCCCTTGTCGCTTTTGGTTCGTTCTGCCTCTATCTCCTATGCGTGCTACCGTGAA
  binding result: no binding
